{
  "source": "IntAct's records for PubMed 23039992",
  "parents": {"B1": {"name": "Tumor necrosis factor receptor superfamily member 11B (Mus musculus), O08712 (parent)", "chain": "MNKWLCCALLVLLDIIEWTTQETLPPKYLHYDPETGHQLLCDKCAPGTYLKQHCTVRRKTLCVPCPDHSYTDSWHTSDECVYCSPVCKELQSVKQECNRTHNRVCECEEGRYLEIEFCLKHRSCPPGSGVVQAGTPERNTVCKKCPDGFFSGETSSKAPCIKHTNCSTFGLLLIQKGNATHDNVCSGNREATQKCGIDVTLCEEAFFRFAVPTKIIPNWLSVLVDSLPGTKVNAESVERIKRRHSSQEQTFQLLKLWKHQNRDQEMVKKIIQDIDLCESSVQRHLGHSNLTTEQLLALMESLPGKKISPEEIERTRKTCKSSEQLLKLLSLWRIKNGDQDTLKGLMYALKHLKTSHFPKTVTHSLRKTMRFLHSFTMYRLYQKLFLEMIGNQVQSVKISCL"}},
  "data": [
    {"variants_of": "B1", "details": "with Tnfsf11, O35235-1", "values": [
      {"variant": "MNKWLCCALLVLLDIIEWTTQETLPPKYLHYDPETGHQLLCDKCAPGTYLKQHCTVRRKTLCVPCPDHSYTDSWHTSDECVYCSPVCKELQSVKQECNRTHNRVCECEEGRYLEIEACLKHRSCPPGSGVVQAGTPERNTVCKKCPDGFFSGETSSKAPCIKHTNCSTFGLLLIQKGNATHDNVCSGNREATQKCGIDVTLCEEAFFRFAVPTKIIPNWLSVLVDSLPGTKVNAESVERIKRRHSSQEQTFQLLKLWKHQNRDQEMVKKIIQDIDLCESSVQRHLGHSNLTTEQLLALMESLPGKKISPEEIERTRKTCKSSEQLLKLLSLWRIKNGDQDTLKGLMYALKHLKTSHFPKTVTHSLRKTMRFLHSFTMYRLYQKLFLEMIGNQVQSVKISCL", "note": "[F117A]", "effect of a mutation on the interaction": "increasing interaction strength"}
    ]},
    {"variants_of": "B1", "details": "with Tnfsf11, O35235-1", "remark": "another data set of the same source", "values": [
      {"variant": "MNKWLCCALLVLLDIIEWTTQETLPPKYLHYDPETGHQLLCDKCAPGTYLKQHCTVRRKTLCVPCPDHSYTDSWHTSDECVYCSPVCKELQSVKQECNRTHNRVCECEEGRYLEIELCLKHRSCPPGSGVVQAGTPERNTVCKKCPDGFFSGETSSKAPCIKHTNCSTFGLLLIQKGNATHDNVCSGNREATQKCGIDVTLCEEAFFRFAVPTKIIPNWLSVLVDSLPGTKVNAESVERIKRRHSSQEQTFQLLKLWKHQNRDQEMVKKIIQDIDLCESSVQRHLGHSNLTTEQLLALMESLPGKKISPEEIERTRKTCKSSEQLLKLLSLWRIKNGDQDTLKGLMYALKHLKTSHFPKTVTHSLRKTMRFLHSFTMYRLYQKLFLEMIGNQVQSVKISCL", "note": "[F117L]", "effect of a mutation on the interaction": "increasing interaction strength"}
    ]}
  ]
}
